Measurements taken from patent publication US20150203579A1 (Regeneron, published 2015).

T1: recombinant cynomolgus monkey PD-1 expressed with a C-terminal myc-myc-hexahistidine tag (cynomolgus monkey (Macaca fascicularis))
T1 construct: monomeric; also called MfPD-1-MMH
T1 chain: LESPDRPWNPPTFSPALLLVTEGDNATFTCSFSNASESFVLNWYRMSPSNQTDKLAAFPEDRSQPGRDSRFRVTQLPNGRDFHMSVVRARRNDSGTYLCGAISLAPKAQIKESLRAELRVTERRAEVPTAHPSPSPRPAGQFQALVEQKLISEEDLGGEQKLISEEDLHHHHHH

B1: H4xH9034P (antibody, V domains shown)
VH: EVQLVESGGGVVRPGGSLRLSCTASGFTFDDYGMSWVRQAPGKGLEWISGIGWTGGRSSYADSVRGRFTISRDNAKNSLYLQMNSLGAEDTALYYCARDRQWLVQWYFDYWGQGTLVTVSS
VL: not shown
notes: Human IgG4 Fc with 2 or more amino acid changes as disclosed in US20100331527 (H4xH); also called H4xH9034P2
B2: H4xH9035P (antibody, V domains shown)
VH: EVQLVESGGRVVRPGGSLRLSCAASGFTFDDYGMSWVRQLPGKGLEWVAGISWNDGKTVYAESVKGRFIISRDNAKNSLHLEMNSLRAEDTALYYCARDWQYLIDRYFDFWGQGTLVTVSS
VL: not shown
notes: Human IgG4 Fc with 2 or more amino acid changes (H4xH); also called H4xH9035P2
B3: H4xH9037P (antibody, V domains shown)
VH: EVQLVESGGGLVQPGGSLRLSCAASGFTFDDYAMHWVRQAPGKGLEWVSGIGWSSGSIGYADSVKGRFTISRDNAKNSLYLQMDSLRPEDSALYYCAKAYTFMITLYFDYWGQGTLVTVSS
VL: not shown
notes: Human IgG4 Fc with 2 or more amino acid changes (H4xH); also called H4xH9037P2
B4: H4xH9045P (antibody, V domains shown)
VH: EVQLVESGGGLVQPGRSLRLSCAASGFTFDDYDMHWVRQAPGKGLEWVSGSGWNRGSLGYADSVKGRFTISRDNAKKSLYLQMNSVRVEDTALYYCAKGFVVVSAAYFDYWGQGTLVTVSS
VL: not shown
notes: Human IgG4 Fc with 2 or more amino acid changes (H4xH); also called H4xH9045P2
B5: H4xH9048P2 (antibody, V domains shown)
VH: QVQLVQSGAEVKRPGSSVKVSCKVSGVTFRNFAIIWVRQAPGQGLEWMGGIIPFFSAANYAQSFQGRVTITPDESTSTAFMELASLRSEDTAVYYCAREGERGHTYGFDYWGQGTLVTVSS
VL: not shown
notes: Human IgG4 Fc with 2 or more amino acid changes (H4xH)
B6: H4xH9119P2 (antibody, V domains shown)
VH: EVQLVESGGGLVQPGRSLRLSCAASGFTFEDYAMHWVRQAPGKGLEWVSGIGWSNVKIGYADSVKGRFTISRDNVRNSLYLQMNSLRTEDTAFYYCVKAYTSMLTLYFDYWGQGTLVTVSS
VL: not shown
notes: as for B5
B7: H4xH9120P2 (antibody, V domains shown)
VH: QVQLVQSGAEVKRPGASVKVSCKASGYTFTSFYMYWVRQAPGQGLEWMGIINPSDGSTSNAQKFQGRVTMTRDTSTSTVYMELSSLRSEDTAVYYCARRVAGDIFDIWGQGTMVTVSS
VL: not shown
notes: as for B5
B8: H4xH9128P2 (antibody, V domains shown)
VH: QVQLQESGPGLVKPSETLSLTCTVSGGSISSYHWNWIRQSPGKGLEWIGYIYYIGSTDYNPSLESRVTISVDTSKNQFSLKLSSVTAADTAVYYCARVPVGATGASDVWGQGTMVTVSS
VL: not shown
notes: as for B5
B9: H4xH9135P2 (antibody, V domains shown)
VH: EVQLVESGGSVVRPGGSLRLSCVVSGFTFEDYGLSWVRQIPGKGLEWVSGISWTGGNTGYADSVKGRFTISRDNAKNSLYLQMNSLRAEDTALYHCTRDRQWLMQWYFDYWGQGTLVTVSS
VL: not shown
notes: as for B5

target: T2, recombinant human PD-1 expressed with a C-terminal myc-myc-hexahistidine tag (human); assay: SPR, mAb captured, 37C;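 also: rate constants from fitting sensorgrams to a 1:1 binding model, KD derived as kd divided by ka and half-life as ln2/(60·kd)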
T2 construct: monomeric; also called hPD-1-MMH; human PD-1-MMH

In order of rising Kd:
1. B2  14.3 nM
2. B5  23.2 nM
3. B9  26.6 nM
4. B3  29.5 nM
5. B1  40.2 nM
6. B8  42 nM
7. B6  43.5 nM
8. B7  102 nM
9. B4  662 nM

In order of rising koff:
1. B2  0.00426 s⁻¹
2. B8  0.00436 s⁻¹
3. B3  0.00668 s⁻¹
4. B7  0.00701 s⁻¹
5. B5  0.0086 s⁻¹
6. B6  0.0104 s⁻¹
7. B9  0.0111 s⁻¹
8. B1  0.0112 s⁻¹
9. B4  0.0532 s⁻¹

In order of falling kon:
1. B9  418000 M⁻¹ s⁻¹
2. B5  370000 M⁻¹ s⁻¹
3. B2  298000 M⁻¹ s⁻¹
4. B1  279000 M⁻¹ s⁻¹
5. B6  240000 M⁻¹ s⁻¹
6. B3  226000 M⁻¹ s⁻¹
7. B8  104000 M⁻¹ s⁻¹
8. B4  80400 M⁻¹ s⁻¹
9. B7  68800 M⁻¹ s⁻¹

In order of rising t½:
1. B4  0.2 min
2. B1  1 min
3. B9  1 min
4. B6  1.1 min
5. B5  1.3 min
6. B7  1.6 min
7. B3  1.7 min
8. B8  2.6 min
9. B2  2.7 min

target: T3, human PD-1 dimer (human PD-1-mFc or human PD-1-hFc) (human, UniProt Q15116 25-170); assay: SPR, mAb captured, 25C;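 also: surface plasmon resonance on Biacore, PD-1 flowed over captured anti-PD-1 antibodies, rate constants from a 1:1 binding model fit, KD taken as kd/ka and t½ as ln2/(60·kd)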
T3 construct: also called hPD-1-mFc; hPD1-hFc
T3 sequence (Q15116 25-170 C93S): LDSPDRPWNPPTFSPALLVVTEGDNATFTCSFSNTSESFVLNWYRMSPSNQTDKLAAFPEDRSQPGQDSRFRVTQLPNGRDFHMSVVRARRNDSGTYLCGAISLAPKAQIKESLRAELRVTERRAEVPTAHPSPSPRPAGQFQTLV

In order of falling Kd:
1. B7  1.82 nM
2. B4  1.75 nM
3. B8  1.59 nM
4. B6  0.992 nM
5. B3  0.862 nM
6. B5  0.798 nM
7. B1  0.701 nM
8. B9  0.651 nM
9. B2  0.513 nM

In order of falling koff:
1. B5  0.000188 s⁻¹
2. B6  0.000162 s⁻¹
3. B4  0.00016 s⁻¹
4. B1  0.000151 s⁻¹
5. B9  0.000138 s⁻¹
6. B8  0.000133 s⁻¹
7. B3  0.000129 s⁻¹
8. B7  0.000119 s⁻¹
9. B2  0.000103 s⁻¹

In order of falling kon:
1. B5  236000 M⁻¹ s⁻¹
2. B1  215000 M⁻¹ s⁻¹
3. B9  212000 M⁻¹ s⁻¹
4. B2  201000 M⁻¹ s⁻¹
5. B6  163000 M⁻¹ s⁻¹
6. B3  150000 M⁻¹ s⁻¹
7. B4  91300 M⁻¹ s⁻¹
8. B8  83700 M⁻¹ s⁻¹
9. B7  65200 M⁻¹ s⁻¹

In order of falling t½:
1. B2  112 min
2. B7  97 min
3. B3  89 min
4. B8  87 min
5. B9  84 min
6. B1  77 min
7. B4  72 min
8. B6  71 min
9. B5  61 min

target: T3, human PD-1 dimer (human PD-1-mFc or …); assay: SPR, mAb captured, 37C

In order of rising Kd:
1. B2  1.75 nM
2. B1  2.09 nM
3. B9  2.27 nM
4. B5  3.05 nM
5. B3  3.5 nM
6. B8  3.68 nM
7. B6  3.8 nM
8. B4  5.13 nM
9. B7  5.96 nM

In order of falling koff:
1. B4  0.0011 s⁻¹
2. B5  0.0011 s⁻¹
3. B3  0.000921 s⁻¹
4. B6  0.000909 s⁻¹
5. B9  0.000702 s⁻¹
6. B8  0.000686 s⁻¹
7. B1  0.00063 s⁻¹
8. B2  0.000554 s⁻¹
9. B7  0.000482 s⁻¹

In order of falling kon:
1. B5  361000 M⁻¹ s⁻¹
2. B2  316000 M⁻¹ s⁻¹
3. B9  310000 M⁻¹ s⁻¹
4. B1  302000 M⁻¹ s⁻¹
5. B3  263000 M⁻¹ s⁻¹
6. B6  240000 M⁻¹ s⁻¹
7. B4  214000 M⁻¹ s⁻¹
8. B8  186000 M⁻¹ s⁻¹
9. B7  80800 M⁻¹ s⁻¹

In order of falling t½:
1. B7  24 min
2. B2  21 min
3. B1  18 min
4. B8  17 min
5. B9  16 min
6. B3  13 min
7. B6  13 min
8. B4  11 min
9. B5  10 min

Target: T1, recombinant cynomolgus monkey PD-1 …
Assay: SPR, mAb captured, 25C;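 also: rates from fitting Biacore data for PD-1 binding to anti-PD-1 antibodies with a 1:1 model, KD computed as koff/kon and t½ as ln2/(60·koff)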

In order of falling Kd:
1. B4  113 nM
2. B7  34.1 nM
3. B1  28 nM
4. B6  22.2 nM
5. B8  17.7 nM
6. B3  13.1 nM
7. B9  10.6 nM
8. B5  7 nM
9. B2  4.64 nM

In order of falling koff:
1. B4  0.00705 s⁻¹
2. B1  0.00269 s⁻¹
3. B6  0.00166 s⁻¹
4. B9  0.00131 s⁻¹
5. B7  0.00108 s⁻¹
6. B3  0.000915 s⁻¹
7. B5  0.000897 s⁻¹
8. B8  0.000649 s⁻¹
9. B2  0.000434 s⁻¹

In order of rising kon:
1. B7  31700 M⁻¹ s⁻¹
2. B8  36800 M⁻¹ s⁻¹
3. B4  62500 M⁻¹ s⁻¹
4. B3  69900 M⁻¹ s⁻¹
5. B6  75000 M⁻¹ s⁻¹
6. B2  93600 M⁻¹ s⁻¹
7. B1  96100 M⁻¹ s⁻¹
8. B9  124000 M⁻¹ s⁻¹
9. B5  128000 M⁻¹ s⁻¹

In order of falling t½:
1. B2  27 min
2. B8  18 min
3. B3  13 min
4. B5  13 min
5. B7  11 min
6. B9  8.8 min
7. B6  6.9 min
8. B1  4.3 min
9. B4  1.6 min

Target: T1, recombinant cynomolgus monkey PD-1 …
Assay: SPR, mAb captured, 37C

In order of falling Kd:
1. B4  7540 nM
2. B7  107 nM
3. B1  87.3 nM
4. B6  51.4 nM
5. B8  46.1 nM
6. B3  39.7 nM
7. B9  28.9 nM
8. B5  16.8 nM
9. B2  14 nM

In order of rising koff:
1. B8  0.00418 s⁻¹
2. B2  0.00429 s⁻¹
3. B5  0.00697 s⁻¹
4. B7  0.00748 s⁻¹
5. B3  0.0088 s⁻¹
6. B6  0.0123 s⁻¹
7. B9  0.0134 s⁻¹
8. B1  0.0247 s⁻¹
9. B4  0.105 s⁻¹

In order of rising kon:
1. B4  14000 M⁻¹ s⁻¹
2. B7  69800 M⁻¹ s⁻¹
3. B8  90600 M⁻¹ s⁻¹
4. B3  222000 M⁻¹ s⁻¹
5. B6  240000 M⁻¹ s⁻¹
6. B1  283000 M⁻¹ s⁻¹
7. B2  306000 M⁻¹ s⁻¹
8. B5  415000 M⁻¹ s⁻¹
9. B9  462000 M⁻¹ s⁻¹

In order of rising t½:
1. B4  0.1 min
2. B1  0.5 min
3. B6  0.9 min
4. B9  0.9 min
5. B3  1.3 min
6. B7  1.5 min
7. B5  1.7 min
8. B2  2.7 min
9. B8  2.8 min
